In this series the target is GST-Pol32 (Saccharomyces cerevisiae (budding …, UniProt P47110 1-350)). In words: EMSA. On the technique in general: In EMSA bound probe runs differently from free probe, usually more slowly.
Chain of GST-Pol32 (Saccharomyces cerevisiae (P47110 whole entry): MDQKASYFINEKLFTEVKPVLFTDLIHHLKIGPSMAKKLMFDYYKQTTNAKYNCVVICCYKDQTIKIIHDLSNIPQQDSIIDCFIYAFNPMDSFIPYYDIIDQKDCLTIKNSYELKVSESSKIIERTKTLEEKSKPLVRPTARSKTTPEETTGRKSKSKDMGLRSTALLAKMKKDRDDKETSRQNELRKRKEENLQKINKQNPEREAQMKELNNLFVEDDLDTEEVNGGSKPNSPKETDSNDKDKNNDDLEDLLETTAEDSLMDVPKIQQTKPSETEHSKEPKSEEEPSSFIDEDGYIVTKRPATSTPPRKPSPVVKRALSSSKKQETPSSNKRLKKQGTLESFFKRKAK

B1: 58bp DNA (dsDNA)
DNA 1: ATACATTTTATGACTGGAAACTTTTTTGTACAACACTCCAATAAACATTTTGATTTTA
DNA 2: TAAAATCAAAATGTTTATTGGAGTGTTGTACAAAAAAGTTTCCAGTCATAAAATGTAT
In the case of B1, the binding result is given as “binds”.

The values are drawn from article PMC11098083.
